Test results reported in patent US20230235004A1 (published 2023).
Where two headings read alike, the source gives them in different places.

T1: mouse MAdCAM expressed on cells (mouse, UniProt Q61826 22-405)
T1 construct: whole, on cells
T1 sequence (looked up): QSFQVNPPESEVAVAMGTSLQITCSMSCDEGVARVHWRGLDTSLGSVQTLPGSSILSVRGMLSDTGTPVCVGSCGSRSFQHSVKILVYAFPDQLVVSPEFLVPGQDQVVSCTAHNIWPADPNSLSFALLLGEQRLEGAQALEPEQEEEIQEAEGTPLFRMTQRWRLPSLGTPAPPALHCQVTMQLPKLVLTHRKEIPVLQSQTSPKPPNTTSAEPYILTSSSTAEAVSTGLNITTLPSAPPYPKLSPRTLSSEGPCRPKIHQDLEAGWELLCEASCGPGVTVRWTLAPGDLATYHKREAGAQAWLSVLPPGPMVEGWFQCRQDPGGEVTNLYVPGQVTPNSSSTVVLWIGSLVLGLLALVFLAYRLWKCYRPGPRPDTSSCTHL

T2: human MAdCAM expressed on cells (human, UniProt Q13477 19-382)
T2 construct: whole, on cells
T2 sequence (looked up): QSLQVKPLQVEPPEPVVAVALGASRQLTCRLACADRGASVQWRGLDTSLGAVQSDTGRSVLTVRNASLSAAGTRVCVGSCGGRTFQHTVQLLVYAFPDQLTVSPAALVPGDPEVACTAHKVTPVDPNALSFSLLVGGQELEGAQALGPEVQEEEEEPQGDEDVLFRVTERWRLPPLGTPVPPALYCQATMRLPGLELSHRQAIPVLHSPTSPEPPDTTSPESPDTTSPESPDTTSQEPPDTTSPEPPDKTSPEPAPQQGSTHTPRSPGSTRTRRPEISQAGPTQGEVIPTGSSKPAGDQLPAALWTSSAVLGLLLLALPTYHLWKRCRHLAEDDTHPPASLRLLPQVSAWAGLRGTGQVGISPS


How the values were obtained:
Assay in all cases: cell binding
[1] = target: T1, mouse MAdCAM expressed on cells
[2] = target: T1, mouse MAdCAM expressed on cells; remark: listed apart in the source
[3] = target: T2, human MAdCAM expressed on cells
[4] = target: T2, human MAdCAM expressed on cells; remark: listed apart in the source

Row | Binder | binding result [1] | binding result [2] | binding result [3] | binding result [4]
1 | MAdCAM antibody Table 1 clone 8 (scFv) scFv: EVQLLESGGGLVQPGGSLRLSCAASGFMFGDYAMHWVRQAPGKGLEWVSAISGSGGSTYYADSVKGRFTISRDNSKNTLYLQMNSLRAEDTAVYYCAKDLVVAGIWYFDLWGRGTLVTVSSGGGGSGGGGSGGGGSGGGGSDIQMTQSPSSLSASVGDRVTITCRASQGISNNLNWYQQKPGKAPKLLIYDASSLESGVPSRFSGSGSGTDFTLTISSLQPEDFATYYCQQTHSFPSTFGQGTKLEIK | no binding |  |  | 
2 | MAdCAM Antibody Table 2 clone 73 (antibody, V domains shown, IgG format) VH: QVQLVQSGAEVKKPGASVKVSCKASGYTFTSNYVHWVRQAPGQGLEWMGRINPHSGDTSYAQKFQGRVTMTRDTSTSTVYMELSSLRSEDTAVYYCARAGQLWSDWYFDLWGRGTLVTVSS VL: DIQMTQSPSSLSASVGDRVTITCQASQDIRNYLNWYQQKPGKAPKLLIYAATALRTGVPSRFSGSGSGTDFTLTISSLQPEDFATYYCQQSYSHPLTFGQGTKVEIK |  | no binding | binds | 
3 | MAdCAM Antibody Table 2 clone 80 (antibody, V domains shown, IgG format) VH: EVQLLESGGGLVQPGGSLRLSCAASGFTFDDYAMHWVRQAPGKGLEWVSAISGSGGSTYYADSVKGRFTISRDNSKNTLYLQMNSLRAEDTAVYYCAKDLGVVVPAALDYWGQGTTVTVSS VL: DIQMTQSPSSLSASVGDRVTITCQASQDISNHLNWYQQKPGKAPKLLIYDASNLEAGVPSRFSGSGSGTDFTLTISSLQPEDFATYYCQQSYSTPLTFGGGTKVEIK |  | no binding | binds | 
4 | MAdCAM antibody Table 1 clone 16 (scFv) scFv: EVQLLESGGGLVQPGGSLRLSCAASGFTFEDYAMHWVRQAPGKGLEWVSYLNSDGGSTSYADSVKGRFTISRDNSKNTLYLQMNSLRAEDTAVYYCAKDYCTNGVCAFDYWGQGTLVTVSSGGGGSGGGGSGGGGSGGGGSDIQMTQSPSSLSASVGDRVTITCRASQSISTYLNWYQQKPGKAPKLLIYDASNLETGVPSRFSGSGSGTDFTLTISSLQPEDFATYYCQQSYTIPITFGQGTRLEIK | no binding |  |  | binds
5 | MAdCAM Antibody Table 2 clone 77 (antibody, V domains shown, IgG format) VH: EVQLLESGGGLVQPGGSLRLSCAASEFTFSNAWMSWVRQAPGKGLEWVASISSTSAYIDYADSVKGRFTISRDNSKNTLYLQMNSLRAEDTAVYYCAREVVGATTFDYWGQGTLVTVSS VL: DIQMTQSPSSLSASVGDRVTITCRASQSISTWLAWYQQKPGKAPKLLIYAASSLQSGVPSRFSGSGSGTDFTLTISSLQPEDFATYYCQQANAFPPTFGQGTRLEIK |  | binds | binds | 
6 | MAdCAM antibody Table 1 clone 21 (scFv) scFv: EVQLLESGGGLVQPGGSLRLSCAASGFTFSNAWMSWVRQAPGKGLEWVSTIVGNGGATYYADSVKGRFTISRDNSKNTLYLQMNSLRAEDTAVYYCARDNPLRWQGMDVWGQGTLVTVSSGGGGSGGGGSGGGGSGGGGSDIQMTQSPSSLSASVGDRVTITCRASQDISNYLNWYQQKPGKAPKLLIYAASSLQSGVPSRFSGSGSGTDFTLTISSLQPEDFATYYCQQSYSIPPTFGPGTKVDIK | no binding |  |  | binds
7 | MAdCAM antibody Table 1 clone 10 (scFv) scFv: QVQLVQSGAEVKKPGASVKVSCKASGYTLTTWYMYWVRQAPGQGLEWMGWINPNRGATNYAQKFQGRVTMTRDTSTSTVYMELSSLRSEDTAVYYCAKGDLWGAMDVWGQGTLVTVSSGGGGSGGGGSGGGGSGGGGSDIQMTQSPSSLSASVGDRVTITCRASDNIGSWLAWYQQKPGKAPKLLIYAASSLQSGVPSRFSGSGSGTDFTLTISSLQPEDFATYYCQQGYSTPPTFGQGTKVEIK | no binding |  |  | binds
8 | MAdCAM Antibody Table 2 clone 81 (antibody, V domains shown, IgG format) VH: EVQLLESGGGLVKPGGSLRLSCAASGFAFSSHWMHWVRQAPGKGLEWVAGTSGSGESRDYADFVKGRFTISRDDSKNTLYLQMNSLKTEDTAVYYCARETYYYYYMDVWGKGTTVTVSS VL: DIQMTQSPSSLSASVGDRVTITCRASQGISNYLAWYQQKPGKAPKLLIYDAANLEGGVPSRFSGSGSGTDFTLTISSLQPEDFATYYCQQSDIFPPTFGQGTKVEIK |  | binds | binds | 

Results, then the binder that gave them:

Row | binding result [1] | binding result [2] | binding result [3] | binding result [4] | Binder
9 | no binding |  |  | binds | MAdCAM antibody Table 1 clone 17 (scFv) scFv: EVQLLESGGGLVQPGGSLRLSCAASGFTFSDSAMHWVRQAPGKGLEWVSAISGSGSTIYYADSVKGRFTISRDNSKNTLYLQMNSLRAEDTAVYYCVSDIAVAGHWYFDLWGRGTLVTVSSGGGGSGGGGSGGGGSGGGGSDIQMTQSPSSLSASVGDRVTITCRASQSISTFLNWYQQKPGKAPKLLIYAASRLEGGVPSRFSGSGSGTDFTLTISSLQPEDFATYYCQQANSFPLTFGPGTKVDIK
10 | no binding |  |  |  | MAdCAM antibody Table 1 clone 25 (scFv) scFv: QVQLVQSGAEVKKPGASVKVSCKASGYTLTTWYMYWVRQAPGQGLEWMGWINPNRGATNYAQKFQGRVTMTRDTSTSTVYMELSSLRSEDTAVYYCAKGDLWGAMDVWGQGTLVTVSSGGGGSGGGGSGGGGSGGGGSDIQMTQSPSSLSASVGDRVTITCRASDNIGSWLAWYQQKPGKAPKLLIYAASSLQSGVPSRFSGSGSGTDFTLTISSLQPEDFATYYCQQGYSTPPTFGQGTKVEIK
11 | no binding |  |  |  | MAdCAM antibody Table 1 clone 30 (scFv) scFv: QVQLVQSGAEVKKPGASVKVSCKASGYTLTTWYMYWVRQAPGQGLEWMGWINPNRGATNYAQKFQGRVTMTRDTSTSTVYMELSSLRSEDTAVYYCAKGDLWGAMDVWGQGTLVTVSSGGGGSGGGGSGGGGSGGGGSDIQMTQSPSSLSASVGDRVTITCRASDNIGSWLAWYQQKPGKAPKLLIYAASSLQSGVPSRFSGSGSGTDFTLTISSLQPEDFATYYCQQGYSTPPTFGQGTKVEIK
12 | no binding |  |  | binds | MAdCAM antibody Table 1 clone 26 (scFv) scFv: QVQLVQSGAEVKKPGASVKVSCKASGYTLTTWYMYWVRQAPGQGLEWMGWINPNRGATNYAQKFQGRVTMTRDTSTSTVYMELSSLRSEDTAVYYCAKGDLWGAMDVWGQGTTVTVSSGGGGSGGGGSGGGGSGGGGSDIQMTQSPSSLSASVGDRVTITCRASDNIGSWLAWYQQKPGKAPKLLIYAASSLQSGVPSRFSGSGSGTDFTLTISSLQPEDFATYYCQQGYSTPPTFGQGTKVEIK
13 | no binding |  |  | binds | MAdCAM antibody Table 1 clone 27 (scFv) scFv: QVQLVQSGAEVKKPGASVKVSCKASGYTFTGYYIHWVRQAPGQGLEWMGWMNPNSGNTGYAQKFQGRVTMTRDTSTSTVYMELSSLRSEDTAVYYCARDPGFLGYCSGGSCYDGWFDPWGQGTLVTVSSGGGGSGGGGSGGGGSGGGGSDIQMTQSPSSLSASVGDRVTITCRASQSISSYLHWYQQKPGKAPKLLIYAASSLQSGVPSRFSGSGSGTDFTLTISSLQPEDFATYYCQQSYTAPYTFGQGTKLEIK
14 | no binding |  |  | binds | MAdCAM antibody Table 1 clone 28 (scFv) scFv: QVQLVQSGAEVKKPGASVKVSCKASGYTFTDYFLHWVRQAPGQGLEWMGWMNPTSGNTGYAQKFQGRVTMTRDTSTSTVYMELSSLRSEDTAVYYCAREGEGSGFDYWGQGTLVTVSSGGGGSGGGGSGGGGSGGGGSDIQMTQSPSSLSASVGDRVTITCRASQGINSWLAWYQQKPGKAPKLLIYDASNLETGVPSRFSGSGSGTDFTLTISSLQPEDFATYYCQQSYSTPLTFGGGTKVEIK
